Data published in IntAct's records for PubMed 26555173.

B1: Sterol regulatory element-binding protein cleavage-activating protein (Cricetulus griseus (Chinese hamster)), P97260 (parent)
chain: MTLTERLREKISQAFYNHGLLCASYPIPIILFTGLCILACCYPLLKLPLPGTGPVEFSTPVKDYSPPPVDSDHKQGEPSEQPEWYVGAPVAYIQQIFVKSSVSPWHKNLLAVDVFRLPLSRAFQLVEEIRNHVLRDSSGTKSLEEVCLQVTDLLPGLRKLRNLLPEHGCLLLSPGNFWQNDWERFHADPDIIGTIHQHEPKTLQTSATLKDLLFGVPGKYSGVSLYTRKRTVSYTITLVFQRYHAKFLSSLRARLMLLHPSPNCSLRAENLVHVHFKEEIGIAELIPLVTTYIILFAYIYFSTRKIDMVKSKWGLALAAVVTVLSSLLMSVGLCTLFGLTPTLNGGEIFPYLVVVIGLENVLVLTKSVVSTPVDLEVKLRIAQGLSSESWSIMKNVATELGIILIGYFTLVPAIQEFCLFAVVGLVSDFFLQMFFFTTVLSIDIRRMELADLNKRLPPESCLPSAKPVGRPARYERQLAVRPAMPHTITLQPSSFRNLRLPKRLRVIYFLARTRLAQRLIMAGTVVWIGILVYTDPAGLRTYLAAQVTEQSPLGEGSLGPMPVPSGVLPASRPDPAFSIFPPDAPKLPENQTVPGELPEHAAPAEGVHDSRAPEVTWGPEDEELWRRLSFRHWPTLFNYYNITLAKRYISLLPVIPVTLRLNPQEALEGRQPQDGRSAWAPPESLPAGLWEAGPKGPGGTQAHGDITLYKVAALGLAAGIVLVLLLLCLYRVLCPRNYGQPGGGAGRRRRGELPCDDYGYAPPETEIVPLVLRGHLMDIECLASDGMLLVSCCLAGQVCVWDAQTGDCLTRIPRPGSRRDSCGGGAFETQENWERLSDGGKTSPEEPGESPPLRHRPRGPPQPALFGDQPDLTCLIDTNFSVQLPPEPTQPEPRHRAGCGRARDSGYDFSRLVQRVYQEEGLAAVRMPALRPPSPGSPLPQASQEDGAAPEKGSPPLAWAPSTAGSIWSLELQGNLIVVGRSSGRLEVWDAIEGVLCCSNDEVSSGITALVFLDRRIVAARLNGSLDFFSLETHTSLSPLQFRGTPGRGSSPSSSVYSSSNTVACHLTHTVPCAHQKPITALRAAAGRLVTGSQDHTLRVFRLEDSCCLFTLQGHSGAITTVYIDQTMVLASGGQDGAICLWDVLTGSRVSHTFAHRGDVTSLTCTTSCVISSGLDDLINIWDRSTGIKLYSIQQDLGCGASLGVISDNLLVTGGQGCVSFWDLNYGDLLQTVYLGKNSEAQPARQILVLDNAAIVCNFGSELSLVYVPSVLEKLD
partner: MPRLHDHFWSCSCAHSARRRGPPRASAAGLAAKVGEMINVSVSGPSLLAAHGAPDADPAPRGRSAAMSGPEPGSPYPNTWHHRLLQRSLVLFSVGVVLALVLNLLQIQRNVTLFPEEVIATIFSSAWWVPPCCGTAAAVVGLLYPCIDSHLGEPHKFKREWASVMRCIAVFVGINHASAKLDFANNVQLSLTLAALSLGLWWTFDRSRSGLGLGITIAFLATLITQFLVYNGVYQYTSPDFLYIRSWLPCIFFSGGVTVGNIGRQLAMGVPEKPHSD

Variants of: B1
Details: with insi1_human INSIG1, O15503

**Q.** Which “effect of a mutation on the interaction” value does the source give for N263E;N590E;N641E here?
**A.** increasing interaction strength
